From a protein production outcome set (Wang et al. 2014)

Assay: label from the status in PepcDB records

**Q.** With “MSAQEPWTAATAKGTALKNTTLLKALTIGILSILALIPLGIIMDLTSDREMLYHSVVEEIGRSWGEQQTLSGPALVIPYRYFVMEEEVSNDGKTRREVKRTYQDELVILPKKLALDLDLKHDFRTRGIYQSLVYSAALKGQADFSLNSYDIPNLIALDNKNARLVFGVSSNQAIDKVEKIEIKGDSALLSGSLMSGTGLTTGGLEKGFNQGIQVSEASDFSVNFAMTLRGSQSISALPLGEQTLINIQADWPHPSFKGLLPAEREINAKGFTASWNISHLTRNYPQEFVKSNQSTLTEVVANAILFEPVTHYGKIDRSVKYGLLFIVLTFIMLFIFELGQKTSLSIVQYILVGSAMALFYLLLLSLSEHLAFLQAYLIAACIPVLSVSTYVGSATASLKRGVIVGTMLVSLYAVLYSILQLEDYALLMGTGLLVVVLLILMFVTRHQSKNTAQ” as the sequence, how does the protein production read?
**A.** The protein production was “not failed”.

**Q.** For “MSARSLYQDTAVAALRDDLALALCAAAHHGLGEGVCNHFSVALPGQAGAFLLNPRGLMWSEVRAEDIVLVDAAGNKLAGRHEVEPTAMFIHAAIHQVAGKACVLHTHMPYATALTLTEARMLDTTLSQNAMRFHGRVAADRRYNGLALDAAEGERIARAMDGADIAFLGNHGVVVCGERIDYAFDDLYYLERACCAQVLAESSGRPLVPLDAALAASVAGQARSERLQSTLFFEALRRALGLEHHHHHH”, which protein production is on record?
**A.** The protein production was “failed”.

**Q.** For “MSASAHIAQPDTRQQSRSDTPQAVAALAGRVLLSAIFLLSGVSKLAAPAMMIGYIGSVGLPFPQLALALAVIVEIGGGLALVAGWRTRTVAALLALFSVVTALAFHNALGDQNQFIHFFKNLAMAGGLLQVVAFGAGRFSLDARRR”, which protein production is on record?
**A.** The protein production was “failed”.

**Q.** Which protein production does the source give for “MSAVKSVSSFRLASLLRRENDPSAAMKLFRNPDPESTNPKRPFRYSLLCYDIIITKLGGSKMFDELDQVLLHLKTDTRIVPTEIIFCNVINFFGRGKLPSRALHMFDEMPQYRCQRTVKSLNSLLSALLKCGELEKMKERLSSIDEFGKPDACTYNILIHGCSQSGCFDDALKLFDEMVKKKVKPTGVTFGTLIHGLCKDSRVKEALKMKHDMLKVYGVRPTVHIYASLIKALCQIGELSFAFKLKDEAYEGKIKVDAAIYSTLISSLIKAGRSNEVSMILEEMSEKGCKPDTVTYNVLINGFCVENDSESANRVLDEMVEKGLKPDVISYNMILGVFFRIKKWEEATYLFEDMPRRGCSPDTLSYRIVFDGLCEGLQFEEAAVILDEMLFKGYKPRRDRLEGFLQKLCESGKLEILSKVISSLHRGIAGDADVWSVMIPTMCKEPVISDSIDLLLNTVKEDGPLSAMPQC” here?
**A.** Its protein production is “failed”.

**Q.** With “MSAVVAQTLHVFGLRSHVANNIFYFDEQIIIFPSGNHCVKYNVDQKWQKFIPGSEKSQGMLALSISPNRRYLAISETVQEKPAITIYELSSIPCRKRKVLNNFDFQVQKFISMAFSPDSKYLLAQTSPPESNLVYWLWEKQKVMAIVRIDTQNNPVYQVSFSPQDNTQVCVTGNGMFKLLRFAEGTLKQTSFQRGEPQNYLAHTWVADDKIVVGTDTGKLFLFESGDQRWETSIMVKEPTNGSKSLDVIQESESLIEFPPVSSPLPSYEQMVAASSHSQMSMPQVFAIAAYSKGFACSAGPGRVLLFEKMEEKDFYRESREIRIPVDPQSNDPSQSDKQDVLCLCFSPSEETLVASTSKNQLYSITMSLTEISKGEPAHFEYLMYPLHSAPITGLATCIRKPLIATCSLDRSIRLWNYETNTLELFKEYQEEAYSISLHPSGHFIVVGFADKLRLMNLLIDDIRSFKEYSVRGCGECSFSNGGHLFAAVNGNVIHVYTTTSLENISSLKGHTGKIRSIVWNADDSKLISGGTDGAVYEWNLSTGKRETECVLKSCSYNCVTVSPDAKIIFAVGSDHTLKEIADSLILREISAFDVTYTAIVISHSGRMMFVGTSVGTIRAMKYPLPLQKEFNEYQAHAGPITKVSRTLSPGTQSHTCLLRALFIPSTSQCLFSLLLLSYLFIHHSLNHHLLTMNILFV” as the sequence, how does the protein production read?
**A.** The protein production was “failed”.

**Q.** Which protein production does the source give for “MSAWTMSDPYPATEAHAQRAAKSSPKSLLDRLLSLVRREPEDREGIKAILEAAHERELLDAESYAMIKGALAVSERTVADIMVPRSRMDLLDISQPLPQLLATIIETAHSRFPVYEDDRDNIIGILLAKDLLRYMLEPALDIRSLVRPAVFIPEVKRLNVLLREFRASRNHLAIVIDEHGGISGLVTMEDVLEQIVGDIEDEFDEDEEESIFPEGENQWRLTASTDISHFNATFATDLPDDEYDSVGGWLGGQLGRIPRRGDSADHDGLHIEVVRADARRALWLRVRRNAGAQPPASAAE” here?
**A.** Its protein production is “not failed”.

**Q.** For “MSCGYTGPINEQNKENIKRAIAMHAAARRTRMLQQLREGLQLYRLVDIMEKNKEVCRSHFVFEGGNDQVDSQYIVSHLDPKMSESGTLKHSKEMQILNNFQDFLMELEDGGPEDEEALCVSKVMQWLSGQAHVHLLLSERQAFKITVLFDHTCMERMPDHRICYPVDSAWTQTITFPTAHSTSLNQFKENMRIAVQQGAYFYRV”, which protein production is on record?
**A.** Its protein production is “failed”.

**Q.** For “MSDAAEIRMDAGALNAFLHRAFPEVDPEQMPQVLEVEAGRALLKLPYASRQLRPGGVISGPTMMSLADTAAYAMILARIGEVALSVTTSLNIHFLRGCKPGDLYAEATLLKLGRRIATVDVLMWTQGRERAAAKATVAYAIP”, which protein production is on record?
**A.** The protein production was “failed”.

**Q.** For “MSDAHKSDLYLVLVTLLAAIGWMLSKEAVLMMPPLMFMAARFLIAGAFLALLALPSLLRLSRDQILRSLGVGFVFGIAMTCWIMGLYHTDSMGEGAFLTSLGVVIVPIIARTVFGEQQPLSTWLAIPIAVAGLALLSLENGFRPDPGQLYFVLAATIFALYFTLNTRAANQRIVVDKQGKTVEKKKVPALPLTAIALLTVGTVTLAESAISERWTHILTNPEPMLYVWVLASALIATAARFLLQTYAQSLSVNSHGVVILVLEPVWVAVFAVAWFGETMTLLQIAGCALIFAALLVNRWNALSRAIKALMKAKNPRQRG”, which protein production is on record?
**A.** Its protein production is “failed”.

**Q.** With “MSDAPTVVAYLGPAGTFTEEALYKFADAGVFGDGEIEQLPAKSPQEAVDAVRHGTAQFAVVAIENFVDGPVTPTFDALDQGSNVQIIAEEELDIAFSIMVRPGTSLADVKTLATHPVGYQQVKNWMATTIPDAMYLSASSNGAGAQMVAEGTADAAAAPSRAAELFGLERLVDDVADVRGARTRFVAVQAQAAVSEPTGHDRTSVIFSLPNVPGSLVRALNEFAIRGVDLTRIESRPTRKVFGTYRFHLDISGHIRDIPVAEALRALHLQAEELVFVGSWPSNRAEDSTPQTDQLAKLHKADEWVRAASEGRKLN” as the sequence, how does the protein production read?
**A.** The protein production was “not failed”.

**Q.** Which protein production does the source give for “MSDCLFDLHIGYVRFKNPIALAPMAGIVDSAFANQYASNAGLVILGAFNLDKASIAVASALVARGRKEFISDEPMEFMKKEIRAVTSGSAVAVNVRSTTLEPLIEAAKIVKEEGAILELNAHCRQPEMLEAGLGEALLHDLPKLSAWIRAIKETGVVLSVKVRANVVNDIELARLIDKAGADIIHVDAEMEGFGADLDAILNYRDATRLFLIGNNSVKDFEAAKEMFTRGADMVSAARGVLENSGLIQELVENVTSYQQSIGWYNAPKHVCSEGDFRGLAFCCLPVKPCPVHEKFQKLGYTAEEFARTKLDFAKGTMLEYGEDTCFGSLVWCCKITKPCWIRDGVLNTIGLSDTEYMKLKKQLAEYVLDHARIPVNESQ” here?
**A.** The protein production was “failed”.

**Q.** With “MSDEVPEILLAHYLKTLKLPTFQREYQKLARLCATEGVDHVEYLLRLSEREMIERDRRKVERRIKAARFPVVKSLDSFDFAAIPKLNKMQVLELARCEWIERRENVIALGPSGTGKTHVALGLGLAACQKGLSVGFTTAAALVSEMMEARDERRLLRFQKQMAAYQLLIIDELGFVPLSKTGAELLFELISQRYERGATLITSNLPFDEWTETLGSERLTGALLDRITHHVNILEMNGDSYRLAQSRARKAGLEHHHHHH” as the sequence, how does the protein production read?
**A.** Its protein production is “not failed”.

**Q.** With “MSDHNNKGRQQDVKALPRRVDERLNLSRHKEVKPSRLHDEVHRIVYELEARQLELEMQQENMLQSKEEMECLLKRYVEHYDIAPHSYMTISREGSILEANLTAAKNLGQDRALLKGDLLEKFIADKDRPVFKAFLERVFRGQTNAFCEVKLFNNQASQARGSAEADRYETVIEERMVRFDAALSNDGEECYIYITVSDRGSQNELEGQNTFFTDRLKDDIADMPDSDKVDFNYQLFDSVIHTRIRLAALSYLYTVKQACFVEIRDKIKASDGSLSVHMRMLESAGYISCDKEFLARKPQTVYRITPLGHDAFLKYSDIVFSLIAKKQEAS” as the sequence, how does the protein production read?
**A.** Its protein production is “failed”.

**Q.** With “MSDHVCQEGCRHHSHGEDSPEIQQEFQEGRRDFMRDFAVGGVLASAASLGISSSAFGQTMPKTGLTSGHATHYYIPASDKTVSWGFFSKSLKPVVELESGDFATIETLTHHSNDDASLMVKGDPGAESVFYWDSKRKNVDRRGMGPMDHKLGAGGGMGVHILTGPVAIKGAEPGDVLEVRIVDVALRPSANPEFKGKTFGSNVAANWGFHYNELIEEPKKREVVTIYELDATGERNWARAFYNYRWTPQKDPFGVVHPIVDYPGVPVDHSTISKNYNVLKNIRVPVRPHFGTMGLAPKEADLVNSVPPSHFGGNIDNWRIGKGATMYYPVSVAGGLFSVGDPHASQGDSEMCGTAIECSLTGTFQFILHKKADLPGTPLADLQYPLLETQDEWVLHGFSYANYLAELGPDAQNSIFSKSSLDLALKDAFRKMRHFLMQTQNLTEDEAVSLMSIGVDFGITQVVDGNWGVHAVVKKGIFPGRDV” as the sequence, how does the protein production read?
**A.** The protein production was “not failed”.

**Q.** For “MSDIAVRPIRAEDVPQACAILNRIIEIGGTTAFEQPVSEDEFDAWYVNGADLICCHVALDAAGAVAGFQWLGRNDSLPEGCGDIASFTRREPVLRGAGRALFACTVAVARDRGLAEINATIRADNALGLAYYGKMGFRDHVVTPAVPLRDGRPVDRISKRFDLRG”, which protein production is on record?
**A.** The protein production was “failed”.

**Q.** With “MSDIKHEKKLANMDTPGETTKSFENKLDEEIPDIEESDFINSPPFSDEIFSPEDSKQVEISELSKQAYSLLKGNSITEAINVFKKILELDPTNNYALVGLGDAERKNNKFNEAIKFYKQCLEHHPSNNYALFGLADCYKSMNQFPRAIAIWEEYLKFDDKNITVLTRVADAYRKTKEFEKAEKLYQKVLEKSPKNAYALIGLGHLNYDFKKYREALVYWEKVMESSGELVDIRILTSIGNCYRKMKLFDRGVYYFERALERSPDNFYGLFGLADCYRGLNQQYNSIVYWKKILELDPNNKVILTRIGDAYRSMNDFEKAKESYQKALDIDFDSYAMLGLAILCKLQQKYDQAITTLTHLKDTGDTNYNYRVYLELAQCYIEKKEKQKAIETLIDFQKLGIKNQTVSDLLFELTKNDH” as the sequence, how does the protein production read?
**A.** Its protein production is “failed”.

**Q.** Which protein production does the source give for “MSDIKKLGSSWIINWFFGFNQIPTNEDSSIYMKSVLTCAKADGVISPEEKDWALGFCASWGVADWVIEDLKTYEADEALEEVIARSPQVSMAQRDILLSAIWVSAADGELHEKEKAKIRKMATILGIKEEIVDQLEQLYYYEAALRQKRLNLLYPQKSPY” here?
**A.** The protein production was “not failed”.

**Q.** For “MSDIQVRHVEADKQFVIAVDGEDAGFAGYAERDGHRNFNHTVIDPRFRGQGLSQPLIQQALEATHADGLGVIATCSAVVGFVQKNPEFRDYLA”, which protein production is on record?
**A.** Its protein production is “failed”.

**Q.** Which protein production does the source give for “MSDKHDVIVAGAGPAGAQCARDLAERGYDVVVLEAEPEDEFPRQSNKSTAGTFASMMGAFGVPDDVVMQYTDDVVLESPHEYFVQDQPGAVLEFAEFKQWLVAAGEQQGAEYRFEARVNNPITEGGEIVGVKYDGDEEVYGDIIIDATGPAAPLAKKLGVTDLRRSNQAIGIEWEMENVAVDHEGYADLSDAMMLRLDHDLAPGGYSWIFHTGADTAKVGICYIQNESYQRFGDASKSIDDHLDYWMETDPRLADATKLAGKQHRGSAHIQLPANFSTDNFMAIGDTVPTVDPLWGEGIHKCMESARAAAITADRCFMGDDRDTSADALSIYDDLWHKRVAPNARMRLTMTQLLYLASNERYDRLMSDLQTADVGTLSGANEGGLRSLLEFVHTEDVPLLARFARDRLRA” here?
**A.** The protein production was “failed”.

**Q.** For “MSDLITLAQLSQGYRYNSDSLILADFILKQGIKGAVFDVGAGCGIIGILLKKNIANLSLSLIDIQKENIELIEKNLKSNKIQGDIFHDDFNQFQIIKKFDFIVCNPPFYRQGAYKSEDQHKAISKFQEFLPLHSFLAKTNSMLKPNGTLYFCYEALALDEICFILKDMKMKITKLCFVHTHQSKKARLVLIQVKKGSKSPCEILPPFFVYENEILSKQMQEIHLRFRLKSYDI”, which protein production is on record?
**A.** The protein production was “failed”.
